# Assay results: publication PMC5669352
# Target: native mapacalcine (Cliona vastifica) (UniProt P86916)
# Experiment: MALDI-MS
substance,measurement,value
native mapacalcine (from UniProt P86916 1-89) (natural protein),stoichiometry N,2
